Measured values as given in paper PMC3808539 (2013).
Where a chain is given by its changes, count along the chain named. Names and notes keep the numbering of the source. Blank lines part the entries; values can stand above or below the binder they belong to. Ends that are not written are not given here.

Tests used:
[1] = target: peptide having an Ala-Tyr-Ala C terminus; assay: ITC
[2] = target: peptide having an Ala-Tyr-Ala C terminus; assay: ITC; peptide …
FMLLRRKAYV = target: T1, FMLLRRKAYV (Bacillus subtilis); assay: ITC
T1 chain: FMLLRRKAYV-OH

B1: CtpB R168F (enzyme)
chain: MADSERDKAMDKIEKAYELISNEYVEKVDREKLLEGAIQGMLSTLNDPYSVYMDKQTAKQFSDSLDSSFEGIGAEVGMEDGKIIIVSPFKKSPAEKAGLKPNDEIISINGESMAGKDLNHAVLKIFGKKGSSVSMKIQRPGTKKQLSFRIKRAEIPLETVFASEKKVQGHSVGYIAISTFSEHTAEDFAKALRELEKKEIEGLVIDVRGNPGGYLQSVEEILKHFVTKDQPYIQIAERNGDKKRYFSTLTHKKAYPVNVITDKGSASASEILAGALKEAGHYDVVGDTSFGKGTVQQAVPMGDGSNIKLTLYKWLTPNGNWIHKKGIEPTIAIKQPDYFSAGPLQLKEPLKVDMNNEDVKHAQVLLKGLSFDPGREDGYFSKDMKKAVMAFQDQNKLNKTGVIDTRTAETLNQQIEKKKSDEKNDLQLQTALKSLFVNLEHHHHHH
- Kd [1]: 40 µM

B3: CtpB R168A (enzyme)
chain: B1 chain with F126A
- Kd [1]: 21 µM

Further lines, results first:

- Kd [2]: 6.5 µM
B2: CtpB S309A, proteolytically inactive mutant (enzyme)
chain: B1 chain with F126R, A185T, L215I, S267A, V402I

- Kd (FMLLRRKAYV): 0.9 µM
- Kd [2]: 2.3 µM
B4: isolated PDZ domain of CtpB (domain or fragment)
chain: SVYMDKQTAKQFSDSLDSSFEGIGAEVGMEDGKIIIVSPFKKSPAEKAGLKPNDEIISINGESMAGKDLNHAVLKIRGKKGSSVSMKIQRP
